Measurements reported in IntAct's records for PubMed 24793649.

B1: CRISPR-associated endonuclease Cas1 (Escherichia coli (strain K12)), Q46896 (parent)
chain: MTWLPLNPIPLKDRVSMIFLQYGQIDVIDGAFVLIDKTGIRTHIPVGSVACIMLEPGTRVSHAAVRLAAQVGTLLVWVGEAGVRVYASGQPGGARSDKLLYQAKLALDEDLRLKVVRKMFELRFGEPAPARRSVEQLRGIEGSRVRATYALLAKQYGVTWNGRRYDPKDWEKGDTINQCISAATSCLYGVTEAAILAAGYAPAIGFVHTGKPLSFVYDIADIIKFDTVVPKAFEIARRNPGEPDREVRLACRDIFRSSKTLAKLIPLIEDVLAAGEIQPPAPPEDAQPVAIPLPVSLGDAGHRSS
partner: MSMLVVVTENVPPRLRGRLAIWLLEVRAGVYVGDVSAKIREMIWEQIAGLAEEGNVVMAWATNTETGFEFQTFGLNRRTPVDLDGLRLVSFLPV

Variants of: B1
Settings: with cas2_ecoli ygbF

Variant | effect of a mutation on the interaction
R252E | disrupting interaction strength
